Experiments:
[1] = target: T1, Nan-KLF1 zinc finger domain (mouse (murine), Nan mutant, UniProt P46099 243-358, E321D); assay: EMSA
[2] = target: T1, Nan-KLF1 zinc finger domain; assay: fluorescence polarization
[3] = target: T2, KLF1 zinc finger domain (WT) (mouse (murine), UniProt P46099 243-358); assay: fluorescence polarization
[4] = target: T2, KLF1 zinc finger domain (WT); assay: EMSA

T1 sequence (P46099 243-358 E321D): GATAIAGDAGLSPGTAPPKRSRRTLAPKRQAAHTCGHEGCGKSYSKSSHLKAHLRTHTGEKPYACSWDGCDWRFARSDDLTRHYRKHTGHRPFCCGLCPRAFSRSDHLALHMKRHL
T2 sequence (P46099 243-358): as the sequence (P46099 243-358 E321D) above, with D79E counted along it

Row | Binder | binding result [1] | binding result [4] | further results
1 | Alas2 variant 3 (AG), EMSA (dsDNA) DNA 1: TCTCTCCCACTCCCTGGGCTC DNA 2: GAGCCCAGGGAGTGGGAGAGA | binds |  | 
2 | Alas2 variant 1 (CA), EMSA (dsDNA) DNA 1: TCTCTCCCATGCCCTGGGCTC DNA 2: GAGCCCAGGGCATGGGAGAGA | binds |  | 
3 | Alas2_fp (CG) (dsDNA, 5' fluorescein-dT (/5FluorT/) preceding S51, written as T) DNA 1: TTCTCTCCCACGCCCTGGGCTC DNA 2: GAGCCCAGGGCGTGGGAGAGA |  |  | Kd [2]: 130 nM; Kd [3]: 150 nM
4 | Alas2 variant 2 (CT), EMSA (dsDNA) DNA 1: TCTCTCCCAAGCCCTGGGCTC DNA 2: GAGCCCAGGGCTTGGGAGAGA | binds |  | 
5 | beta-globin (Hbb promoter, Category II, TG) (dsDNA) DNA 1: TAGAGCCACACCCTGGTAAG DNA 2: CTTACCAGGGTGTGGCTCTA |  | binds | 
6 | Alas2 (Category I, CG), EMSA (dsDNA) DNA 1: TCTCTCCCACGCCCTGGGCTC DNA 2: GAGCCCAGGGCGTGGGAGAGA | binds | binds | 

Reference: PMC5388391
